Results taken from the supplement of paper PMC9112550, “Optimization of the antimicrobial peptide Bac7 by deep mutational scanning” (BMC Biology, 2022).

Test system: Escherichia coli TOP10
Test: shrunken log2 fold change of peptide-encoding DNA abundance (4.5 h post-induction vs induction); higher = less antimicrobial activity (less host growth inhibition)
Conditions: time post-induction: 4.5 h; library: site-saturation at positions 5, 18, 19, 20
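Note: peptides expressed intracellularly from a pBAD plasmid library in pooled LB shake-flask culture, induced with 0.3% L-arabinose, DNA abundance read by NGS, three biological replicates, DESeq2 with apeglm shrinkage.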

| Sequence | shrunken log2 fold change |
| --- | --- |
| RRIRKRPPRLPRPRPRPMLIPRP | 0.0347 |
| RRIRYRPPRLPRPRPRPMSFPRP | -0.00962 |
| RRIRTRPPRLPRPRPRPDRMPRP | -0.0127 |
| RRIRVRPPRLPRPRPRPMFAPRP | -0.0323 |
| RRIRRRPPRLPRPRPRPPQKPRP | 1.31 |
| RRIRLRPPRLPRPRPRPSTCPRP | -0.179 |
| RRIRFRPPRLPRPRPRPYICPRP | -0.4 |
| RRIRRRPPRLPRPRPRPSAKPRP | 0.0742 |
| RRIRKRPPRLPRPRPRPITIPRP | -0.165 |
| RRIRFRPPRLPRPRPRPTAHPRP | 0.193 |
| RRIRMRPPRLPRPRPRPSDNPRP | 0.0409 |
| RRIRWRPPRLPRPRPRPCEVPRP | -0.00149 |
| RRIRFRPPRLPRPRPRPSRWPRP | 0.29 |
| RRIRIRPPRLPRPRPRPIKNPRP | -0.546 |
| RRIRFRPPRLPRPRPRPVDNPRP | -0.0449 |
| RRIRLRPPRLPRPRPRPFHLPRP | -0.177 |
| RRIRQRPPRLPRPRPRPRWSPRP | 0.231 |
| RRIRGRPPRLPRPRPRPQHIPRP | -0.281 |
| RRIRPRPPRLPRPRPRPFWNPRP | -0.478 |
| RRIRHRPPRLPRPRPRPQHWPRP | -0.00395 |
| RRIRKRPPRLPRPRPRPAPTPRP | 1.01 |
| RRIRMRPPRLPRPRPRPINGPRP | 0.0854 |
| RRIRGRPPRLPRPRPRPKYRPRP | 0.000233 |
| RRIRWRPPRLPRPRPRPFTKPRP | -0.151 |
| RRIRDRPPRLPRPRPRPRIPPRP | -0.108 |

| Sequence | shrunken log2 fold change |
| --- | --- |
| RRIRCRPPRLPRPRPRPQGWPRP | -0.0139 |
| RRIRRRPPRLPRPRPRPVYDPRP | -0.331 |
| RRIRKRPPRLPRPRPRPFGTPRP | -0.0368 |
| RRIRERPPRLPRPRPRPHYFPRP | -0.658 |
| RRIRERPPRLPRPRPRPFKSPRP | -0.0568 |
| RRIRNRPPRLPRPRPRPWMLPRP | -0.0937 |
| RRIRERPPRLPRPRPRPQDTPRP | 2.38 |
| RRIRSRPPRLPRPRPRPHEQPRP | 0.128 |
| RRIRRRPPRLPRPRPRPTKLPRP | 0.111 |
| RRIRMRPPRLPRPRPRPDWRPRP | 0.276 |
| RRIRHRPPRLPRPRPRPVGGPRP | 0.417 |
| RRIRWRPPRLPRPRPRPFYVPRP | -0.348 |
| RRIRYRPPRLPRPRPRPCRNPRP | -0.072 |
| RRIRWRPPRLPRPRPRPDMEPRP | -0.0114 |
| RRIRCRPPRLPRPRPRPKLDPRP | 0.125 |
| RRIRVRPPRLPRPRPRPMHWPRP | 0.253 |
| RRIRIRPPRLPRPRPRPSFEPRP | -0.507 |
| RRIRKRPPRLPRPRPRPVHHPRP | -0.0438 |
| RRIRYRPPRLPRPRPRPMNYPRP | -0.49 |
| RRIRWRPPRLPRPRPRPIYEPRP | -0.355 |
| RRIRLRPPRLPRPRPRPCKRPRP | -0.0962 |
| RRIRQRPPRLPRPRPRPHPAPRP | -0.114 |
| RRIRVRPPRLPRPRPRPRAKPRP | 0.16 |
| RRIRWRPPRLPRPRPRPDSLPRP | -0.12 |
| RRIRARPPRLPRPRPRPWTAPRP | 0.871 |

| Sequence | shrunken log2 fold change |
| --- | --- |
| RRIRIRPPRLPRPRPRPHCGPRP | -0.0759 |
| RRIRHRPPRLPRPRPRPCPYPRP | -0.546 |
| RRIRDRPPRLPRPRPRPEWVPRP | -0.0272 |
| RRIRLRPPRLPRPRPRPGTCPRP | 0.0703 |
| RRIRIRPPRLPRPRPRPHCKPRP | -0.147 |
| RRIRVRPPRLPRPRPRPVFKPRP | -0.196 |
| RRIRYRPPRLPRPRPRPECEPRP | -0.185 |
| RRIRKRPPRLPRPRPRPMKFPRP | -0.0265 |
| RRIRMRPPRLPRPRPRPRGYPRP | 0.0597 |
| RRIRTRPPRLPRPRPRPFDPPRP | -0.112 |
| RRIRSRPPRLPRPRPRPNSVPRP | -0.509 |
| RRIRFRPPRLPRPRPRPNREPRP | -0.181 |
| RRIRTRPPRLPRPRPRPYLGPRP | -0.00172 |
| RRIRYRPPRLPRPRPRPRIQPRP | -0.203 |
| RRIRYRPPRLPRPRPRPEYRPRP | -0.00979 |
| RRIRYRPPRLPRPRPRPYMGPRP | -0.019 |
| RRIRDRPPRLPRPRPRPNCPPRP | -0.00232 |
| RRIRCRPPRLPRPRPRPHLFPRP | -0.198 |
| RRIRTRPPRLPRPRPRPVVDPRP | 0.452 |
| RRIRTRPPRLPRPRPRPAYSPRP | 0.0215 |
| RRIRARPPRLPRPRPRPILEPRP | -0.0126 |
| RRIRTRPPRLPRPRPRPFPRPRP | 0.0242 |
| RRIRIRPPRLPRPRPRPHYHPRP | -1.47 |
| RRIRPRPPRLPRPRPRPNDAPRP | -0.025 |
| RRIRDRPPRLPRPRPRPKWNPRP | -0.159 |

| Sequence | shrunken log2 fold change |
| --- | --- |
| RRIRGRPPRLPRPRPRPNWWPRP | 3.32 |
| RRIRCRPPRLPRPRPRPLKWPRP | -0.0792 |
| RRIRERPPRLPRPRPRPTEYPRP | -0.123 |
| RRIRSRPPRLPRPRPRPTDIPRP | -0.489 |
| RRIRMRPPRLPRPRPRPCHFPRP | -0.0459 |
| RRIRPRPPRLPRPRPRPIHPPRP | 0.172 |
| RRIRLRPPRLPRPRPRPWNQPRP | 0.0295 |
| RRIRWRPPRLPRPRPRPMGKPRP | 0.561 |
| RRIRMRPPRLPRPRPRPSGQPRP | 0.602 |
| RRIRPRPPRLPRPRPRPMHCPRP | -0.0698 |
| RRIRRRPPRLPRPRPRPSPPPRP | 0.435 |
| RRIRHRPPRLPRPRPRPKLIPRP | -0.0143 |
| RRIRIRPPRLPRPRPRPVIIPRP | -0.146 |
| RRIRLRPPRLPRPRPRPVSFPRP | 0.0353 |
| RRIRRRPPRLPRPRPRPMYWPRP | -0.185 |
| RRIRARPPRLPRPRPRPSLRPRP | 0.109 |
| RRIRERPPRLPRPRPRPRFWPRP | 0.549 |
| RRIRRRPPRLPRPRPRPRHAPRP | 0.746 |
| RRIRLRPPRLPRPRPRPGLYPRP | -0.476 |
| RRIRPRPPRLPRPRPRPGMNPRP | -0.0398 |
| RRIRFRPPRLPRPRPRPCSHPRP | -0.336 |
| RRIRCRPPRLPRPRPRPAESPRP | 0.0971 |
| RRIRGRPPRLPRPRPRPNSDPRP | -0.0204 |
| RRIRGRPPRLPRPRPRPYVAPRP | 0.0436 |
| RRIRSRPPRLPRPRPRPDAYPRP | 0.101 |

| Sequence | shrunken log2 fold change |
| --- | --- |
| RRIRKRPPRLPRPRPRPCKIPRP | -0.248 |
| RRIRSRPPRLPRPRPRPKMLPRP | -0.149 |
| RRIRDRPPRLPRPRPRPLLPPRP | 0.356 |
| RRIRDRPPRLPRPRPRPNMVPRP | 0.136 |
| RRIRFRPPRLPRPRPRPRLIPRP | -0.261 |
| RRIRRRPPRLPRPRPRPQDDPRP | -0.0295 |
| RRIRFRPPRLPRPRPRPKTPPRP | 0.207 |
| RRIRIRPPRLPRPRPRPVYFPRP | -0.807 |
| RRIRHRPPRLPRPRPRPEQSPRP | -0.0805 |
| RRIRHRPPRLPRPRPRPALDPRP | -0.103 |
| RRIRMRPPRLPRPRPRPEYEPRP | 0.644 |
| RRIRMRPPRLPRPRPRPYLWPRP | 0.0857 |
| RRIRIRPPRLPRPRPRPVTDPRP | -0.00257 |
| RRIRWRPPRLPRPRPRPINSPRP | -0.498 |
| RRIRTRPPRLPRPRPRPIMQPRP | -0.201 |
| RRIRIRPPRLPRPRPRPTDGPRP | -0.00546 |
| RRIRNRPPRLPRPRPRPMMAPRP | -0.106 |
| RRIRRRPPRLPRPRPRPCKTPRP | -0.103 |
| RRIRMRPPRLPRPRPRPCQAPRP | 0.0538 |
| RRIRKRPPRLPRPRPRPRQCPRP | -0.0759 |
| RRIRQRPPRLPRPRPRPDWRPRP | 0.0703 |
| RRIRFRPPRLPRPRPRPKNHPRP | -0.347 |
| RRIRFRPPRLPRPRPRPLLGPRP | 0.123 |
| RRIRDRPPRLPRPRPRPENCPRP | -0.0102 |
| RRIRHRPPRLPRPRPRPLVAPRP | -0.103 |
